Measured values: US20190060324A1, “POLYNUCLEOTIDE-POLY(DIOL) CONJUGATES, PROCESS OF PREPARATION AND USES THEREOF” (THE ROYAL INSTITUTION FOR THE ADVANCEMENT OF …, priority 2014, published 2019)

What was measured:
[1] = Fluorescence of encapsulated Nile Red; assay type: physicochemical; conditions: conjugate 10 μM in TAMg, excitation 535 nm
Description: DNA-conjugates (10 μM) in TAMg buffer (60 μL) were thermally annealed (95 to 4° C., 4 hours). The samples were transferred to glass vials and 1.5 μL of Nile Red solution ([…], acetone) was added, to give a final Nile Red concentration of 2.5 μM. The samples were vortexed briefly, sealed and incubated overnight at room temperature in the absence of light. Fluorescence spectra were recorded at room temperature in a 50 μL quartz cuvette using an excitation wavelength of 535 nm, and monitoring emission between 560 and 750 nm, with excitation and emission slit widths both set at 10 nm.
The sequence-specific self-assembly was also assessed using encapsulation of Nile Red (FIG. 5). In this case a small increase in fluorescence was seen as the block size increased from one to three HE units, consistent with a degree of intramolecular collapse of adjacent HE units, generating progressively larger hydrophobic domains as the block size increases, akin to beads on a string. […] A small, but repeatedly measurable, […] of the maximum emission from the bola-amphiphile (640 nm) with respect to the linear amphiphile (645 nm) was also observed, which is indicative of Nile Red in a more polar environment P. Greenspan, S. D. Fowler, J. Lipid Res. 1985, 26, 781-789). […]

[2] = Dynamic light scattering of DNA-conjugate micelles (hydrodynamic radius, self-assembly); assay type: physicochemical; conditions: 25° C.; for Single-stranded Rh (hydrodynamic radius by DLS): 10 μM in TAMg buffer; for Single-stranded Rh (hydrodynamic radius by DLS) / Double-stranded Rh (hydrodynamic radius by DLS): mean of at least triplicate ± SD; for self-assembly / scattering by DLS: 10 μM in magnesium containing (TAMg) buffer
Description: The conjugates described herein can be further characterized with regard to their self-assembly behavior. To probe the self-assembly in solution, dynamic light scattering (DLS) was used to determine the presence, and hydrodynamic radius, of micellar aggregates.
Dynamic Light Scattering (DLS) experiments were carried out using a DynaPro™ Instrument from Wyatt Technology. A cumulants fit model was used to confirm the presence and determine the size of a monomodal population of micellar aggregates. Sterile water and TAMg buffer were filtered using a 0.45 μm nylon syringe filter before use for DLS sample preparation. All measurements were carried out at 25° C.
This size correlates with DNA-based spherical micelles and is consistent with the tight packing of the HE chains in a hydrophobic core with a charged corona made up of DNA.
To investigate the effect of block pattern on the amphiphilic self-assembly in solution, DLS measurements were carried out for the HE/HEG series. Samples were annealed in TAMg buffer at 10 μM, and measured at 25° C. […] Furthermore, the effect of the positioning of the blocks with respect to the oligonucleotide portion also appears to be a major factor in the self-assembly: the terminal HE6 results in micellization, whereas a central HE6 block prevents aggregation.

[3] = BKM120 loading of HE12-DNA micelles by RP-HPLC and UV-Vis; assay type: physicochemical; conditions: HPLC peak areas, standard curves
Description: BKM120 was prepared as a 10 mM working solution in chloroform. Loading of the structures was achieved by adding 20 μL of BKM120 to a glass vial, followed by solvent evaporation in open air to achieve a thin drug film. HE12-DNA micelles were pre-assembled in 1×TAMg (100 μL at […]) and subsequently added to the drug film. The final solution was 100 μL with excess BKM120 (2 mM). The mixture was vortexed heavily to allow re-suspension of the drug molecules, and was incubated overnight at room temperature. Alternatively, drug loading could also be obtained by a different method. […]
RP-HPLC and UV-Vis spectroscopy were used to determine the amount of BKM120 loaded in the DNA micelles, For HPLC, 60 μL of the purified supernatant was injected into a Hamilton PRP-1 5 μm 100 Å 2.1×150 mm column. […] The products were also detected using a drug-only channel at 320 nm (BKM 120 maximum absorption peak).
For UV-Vis spectroscopy experiments, 20 μL of the purified supernatant was mixed with 80 μL of DMSO, and the absorbance (200 nm-500 nm) was measured. The presence of BKM120 was monitored by the absorbance at 320 nm using a Biotek Synergy HT well-plate spectrometer. […]
The amount of incorporated BKM 120 was calculated by measuring HPLC peak areas of BKM 120 and DNA. […]

[4] = test system: complement strand (Acomp); experiment: Thermal denaturation of duplexes with complement strand by UV absorption; native PAGE; assay type: physicochemical; conditions: between DNA and HE12-DNA, duplex with Acomp 2.5 μM in TAMg
Description: The hybridization of the DNA amphiphiles to their complement strands was confirmed by measurement of the thermal denaturation of the duplexes by UV absorption. For each experiment equimolar amounts of DNA amphiphile and complement strand (Acomp, see Table 1) were combined in TAMg buffer to give a final volume of 150 μL with a duplex concentration of 2.5 μM. Samples were thermally annealed (95 to 4° C., 4 hours) before transfer to a quartz cuvette. Absorbance at 260 nm was monitored over the appropriate temperature range. Typical sigmoidal melting curves were obtained for the hybridization of the complementary strand Acomp to DNA control, discrete (HE-HEG)6-DNA and HE12-DNA micelles. […] Native Polyacrylamide Gel Electrophoresis (PAGE) was carried out at room temperature for 2 hours at a constant voltage of 250V. Sample loading was 0.01 OD260 DNA per lane. Single-stranded samples were annealed (95 to 4° C., 4 hours) prior to loading on the gel to promote uniform assembly. Double-stranded samples were similarly annealed (with Acomp, see Table 1) to provide 25 μL of 10 μM duplex in 1×TAMg. The DNA bands were visualized by incubation with GelRedTM. Thermal denaturation and gel electrophoresis concluded that all of the HEx-DNA molecules retained their ability to hybridize to a complementary DNA strand, highlighting the orthogonal nature of these differing modes of intermolecular self-assembly. […]

[5] = test system: HeLa cells (human cervical cancer); experiment: MTS cytotoxicity assay; assay type: cell-based; conditions: quadruplicate, read-out: inhibitory concentration (IC50), MTS assay
Description: The cytotoxicity of micelles was assessed using the CellTiter96 kit from Promega according to the manufacturer's instructions. Briefly, HeLa cells (human cervical cancer) were seeded at a density of 10000 cells per well in a 96-well plate in DMEM media (Invitrogen) supplemented with 10% FBS and AB/AM. […] Cells were incubated for 24, 48, and 72 h in 5% CO2 at 37° C. After the incubation period, the MTS reagent was added to each well and further incubated for 2 h in 5% CO2 at 37° C. Subsequently, 96-well plates were allowed to equilibrate at room temperature and the absorbance was read at 490 nm using a BioTek Epoch micro-plate reader. All quantifications were done using GraphPad Prism 5 software.

[6] = test system: primary B-CLL lymphocytes; experiment: Cleaved caspase-3 apoptosis assay; assay type: cell-based, human; conditions: primary patient CLL cells, 24 and 48 h
Description: Primary B-CLL lymphocytes were maintained in RPMI complemented with 10% fetal bovine serum (FBS). BMS2 stromal cell line were maintained in Dulbecco's modified eagle medium (DMEM) supplemented with 10% FBS.BMS2 cells were plate at 70×10^4 cells/ml in 24 well plates before coculture with primary B-CLL lymphocytes and incubate at 37° C., 5% C02.
For apoptosis assays, 3×10^6 B-CLL lymphocytes were plated in the presence or absence of stromal cell (BMS2) and incubate 1 h at 37° C., 5% CO2. Cells were then treated with vehicle, micelle, BKM120, and micelle encapsulated BKM120 for 24 and 48 h.
Cells were harvested, washed with PBS then fixed 10 min with 1% paraformaldehyde. After washing, cells were permeabilized and nonspecific sites blocked in PBS containing 3% FBS and 0.01% triton X100. Cells were then incubated 1 h with an anti-caspase-3 FITC conjugated antibody then analyzed with a FACSCalibur flow cytometer. (See FIG. 16).

| Compound | Single-stranded Rh (hydrodynamic radius by DLS) [2] [nm] | self-assembly / scattering by DLS [2] | Double-stranded Rh (hydrodynamic radius by DLS) [2] [nm] | further results |
| --- | --- | --- | --- | --- |
| HE6-HEG6-DNA: DDDDDDHHHHHHTTTTTCAGTTGACCATATA; D dodecane-diol, H hexaethyloxy glycol residues (dodecane-diol and hexaethylene glycol units conjugated, chemistry not fully specified) | 9.7±0.9 | strong scattering | 10.0 ± 0.2 | maximum emission of encapsulated Nile Red [1]: 645 nm; Single-stranded Rh (hydrodynamic radius by DLS) ([2]; listed as HE6-HEG6): 9.7 ± 0.1 nm |
| HE12-DNA: DDDDDDDDDDDDTTTTTCAGTTGACCATATA; D = residue from DMT-dodecane-diol amidite (dodecane-diol (HE) units conjugated, chemistry not fully specified) | 11.3±0.1 |  | 11.3 ± 0.1 | BKM120 molecules incorporated per HE12-DNA conjugate unit [3]: 8; Single-stranded Rh (hydrodynamic radius by DLS) ([2]; listed as HE12): 11.3 ± 0.7 nm; change in melting temperature [4]: 3 °C |
| HEG6-HE6-DNA: HHHHHHDDDDDDTTTTTCAGTTGACCATATA; D dodecane-diol, H hexaethyloxy glycol residues (dodecane-diol and hexaethylene glycol units conjugated, chemistry not fully specified) |  |  |  | maximum emission of encapsulated Nile Red [1]: 640 nm |
| (HE2-HEG2)3-DNA: DDHHDDHHDDHHTTTTTCAGTTGACCATATA; D dodecane-diol, H hexaethyloxy glycol residues (dodecane-diol and hexaethylene glycol units conjugated, chemistry not fully specified) |  | did not exhibit self-assembly |  |  |
| (HE3-HEG3)2-DNA: DDDHHHDDDHHHTTTTTCAGTTGACCATATA; D dodecane-diol, H hexaethyloxy glycol residues (dodecane-diol and hexaethylene glycol units conjugated, chemistry not fully specified) |  | did not exhibit self-assembly |  |  |
| HE6-DNA: DDDDDDTTTTTCAGTTGACCATATA; D = residue from DMT-dodecane-diol amidite (dodecane-diol (HE) units conjugated, chemistry not fully specified) | 6.5±0.4 | strong scattering | 5.6 ± 0.1 | Single-stranded Rh (hydrodynamic radius by DLS) ([2]; listed as HE6): 6.5 ± 0.4 nm |
| Nc1cc(C(F)(F)F)c(-c2cc(N3CCOCC3)nc(N3CCOCC3)n2)cn1 [BKM120] |  |  |  | IC50 [5]: 2000 nM; amount of caspase (cleaved caspase-3) [6]: same amount |
| (HE-HEG)6-DNA: DHDHDHDHDHDHTTTTTCAGTTGACCATATA; D dodecane-diol, H hexaethyloxy glycol residues (dodecane-diol and hexaethylene glycol units conjugated, chemistry not fully specified) |  | did not exhibit self-assembly |  |  |
